From article PMC5925078 (2018)

Columns and labels:
[1] = molecular target: T1, TNFR2 variant in which the intracellular binding site for TRAF2 has been substituted by YFP (UniProt P20333 23-461); assay: cells, second transfection empty vector
T1 chain: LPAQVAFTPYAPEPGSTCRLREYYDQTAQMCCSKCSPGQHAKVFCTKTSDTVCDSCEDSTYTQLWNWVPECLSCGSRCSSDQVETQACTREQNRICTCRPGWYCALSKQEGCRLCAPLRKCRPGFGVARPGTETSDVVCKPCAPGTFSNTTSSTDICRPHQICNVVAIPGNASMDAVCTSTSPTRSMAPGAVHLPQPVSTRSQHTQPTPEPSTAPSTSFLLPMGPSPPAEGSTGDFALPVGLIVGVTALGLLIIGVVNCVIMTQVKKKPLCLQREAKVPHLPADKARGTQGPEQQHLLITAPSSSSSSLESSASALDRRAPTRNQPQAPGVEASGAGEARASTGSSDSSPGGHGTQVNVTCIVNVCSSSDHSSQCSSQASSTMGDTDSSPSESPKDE

[2] = molecular target: T1, TNFR2 variant in which the …; assay: cells co-expressing PGRN

B1: GpL-Flag-TNC-TNF (ligand)
chain: ACGCAAAPDIKDLLSRLEELEGLVSSLREQSDKPVAHVVANPQAEGQLQWLNRRANALLANGVELRDNQLVVPSEGLYLIYSQVLFKGQGCPSTHVLLTHTISRIAVSYQTKVNLLSAIKSPCQRETPEGAEAKPWYEPIYLGGVFQLEKGDRLSAEINRPDYLDFAESGQVYFGIIAL
Binder B1 has a Kd [1] of 36 pM and a Kd [2] of 49 pM.
